For test [1], the target named is Phage λ Orf63, 6xHis-Flag affinity tagged (phage λ). The test can be described thus: SEC-MALS. (In general: In gel filtration, larger molecules generally elute earlier.)
For test [2] the target is unchanged. The test can be described thus: BLI.

Ends that are not written are not given here.

As for “Phage λ Orf63, 6xHis-Flag affinity tagged (natural protein)”, the stoichiometry N – broadly, a count of units in the complex or per binding partner – in test [1] came to 2.
GGLVPRGSGDTKELILAIARKVKEMIKNS (designed binder, also: fused to 6xHis-tagged ubiquitin) [6xHis-tagged ubiquitin fusion protein with the designed Orf63 binding peptide]: the equilibrium dissociation constant (Kd) (as a rule, the concentration at which binding is half-saturated) in test [2] is greater than 20 µM.
